Results as given in patent US12497460B2, “Anti-MSR1 antibodies and methods of use thereof” (REGENERON PHARMACEUTICALS, INC., priority 2018, dated 2025).

T1: His9-hMSR1 (human MSR1 extracellular domain) (Homo sapiens, UniProt P21757)
T1 construct: human MSR1 extracellular domain expressed with a N-terminal nonahistidine tag; His9 (nonahistidine) (N); purchased R&D Systems 2708-MS
T1 sequence (P21757 77-451 limits assumed): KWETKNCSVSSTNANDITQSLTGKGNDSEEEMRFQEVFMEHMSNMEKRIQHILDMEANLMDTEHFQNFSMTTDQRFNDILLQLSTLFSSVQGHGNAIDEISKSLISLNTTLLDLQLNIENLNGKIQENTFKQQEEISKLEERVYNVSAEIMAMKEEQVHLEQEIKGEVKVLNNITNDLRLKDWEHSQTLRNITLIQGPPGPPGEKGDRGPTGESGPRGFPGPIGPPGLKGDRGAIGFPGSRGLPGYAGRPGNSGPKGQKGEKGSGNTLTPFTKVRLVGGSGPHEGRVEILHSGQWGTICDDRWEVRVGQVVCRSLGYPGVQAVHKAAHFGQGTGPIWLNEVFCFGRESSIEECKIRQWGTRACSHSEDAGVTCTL

T2: MSR1-mediated Dil-AcLDL uptake in HEK293.Myc.hMSR1 cells (Homo sapiens, UniProt P21757)
T2 construct: expressed in transfected cells; host or cells: HEK293 (lentiviral transduction, hygromycin selection)
T2 sequence (P21757 1-451): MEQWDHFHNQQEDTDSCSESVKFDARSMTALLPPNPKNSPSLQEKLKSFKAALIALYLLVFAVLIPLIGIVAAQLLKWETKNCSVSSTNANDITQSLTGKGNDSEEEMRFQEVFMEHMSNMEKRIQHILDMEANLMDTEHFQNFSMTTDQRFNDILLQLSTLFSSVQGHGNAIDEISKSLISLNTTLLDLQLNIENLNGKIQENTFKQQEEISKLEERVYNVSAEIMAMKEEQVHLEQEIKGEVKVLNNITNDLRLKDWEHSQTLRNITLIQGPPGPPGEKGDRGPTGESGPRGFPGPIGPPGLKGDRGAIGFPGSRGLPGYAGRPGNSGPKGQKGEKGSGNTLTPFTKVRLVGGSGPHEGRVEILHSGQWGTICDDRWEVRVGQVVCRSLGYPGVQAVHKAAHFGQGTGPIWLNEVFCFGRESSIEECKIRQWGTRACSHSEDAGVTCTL


Tests used:
[1] = test system: B16F10.9 cells (MSR1 negative); test: Flow cytometry binding, MSR1 negative cells; format: cell-based, mouse; conditions: 10 μg/mL antibody
Experimental: Relative cell surface binding of the anti-MSR1 antibodies to mouse MSR1 expressing cells was determined by flow cytometry using MSR1 positive RAW264.7 cells (ATCC, Catalog #TIB-71) and MSR1 negative B16F10.9 cells (Lin et al. 1998. PNAS 95:8829-8834). For the assay, cells were plated in PBS without calcium and magnesium (VWR Cat #45000-446) and 2% FBS (Saradigm Cat #1500-500) (Staining Buffer) in 96 well V-bottom plates (Axygen Scientific, Cat #P-96-450-V-C-S). To block binding to Fc receptors, RAW264.7 cells were incubated for 30 minutes at 4° C. with 500 μg/mL mouse IgG (Jackson ImmunoResearch, Cat #015-000-003) diluted in staining buffer, while B16F10.9 cells remained in staining buffer. Following Fc receptor blocking, 10 μg/mL of anti-MSR1 antibodies or an isotype control antibody were added to the cells and were subsequently incubated for 30 minutes on ice. For a positive control, a commercial anti-mouse MSR1 (Sino Biological, Cat #50129-R004) antibody was used, while a rabbit IgG antibody (Thermo Scientific, Cat #26102) was used as a negative control. […] Cells were subsequently washed and fixed using a 50% solution of Cytofix (BD Biosciences, Cat #554655) diluted in PBS. […] The signal to noise (S/N) was determined by calculating the ratio of the anti-MSR1 antibodies or the control antibodies MFI to the unstained sample MFI (Table 11).

[2] = molecular target: T1, His9-hMSR1 (human MSR1 extracellular domain); test: Biacore T200 surface plasmon resonance binding kinetics of anti-MSR1 antibody-drug conjugates and parental antibodies; conditions: 25° C.; for ka: Table 19, antibody-LXR ADCs and unconjugated antibodies; for kd: Table 19, * = no dissociation observed, kd manually fixed at 1.00E−05
Experimental: The MSR1 antibodies disclosed herein were conjugated to various liver X receptor (LXR) payloads or various steroid payloads. This example describes how equilibrium dissociation constant (KD) values for human MSR1 reagents binding to human anti-MSR1 antibody-drug conjugates and their corresponding unconjugated parental antibodies were determined using a real-time surface plasmon resonance-based Biacore T200 biosensor.
All binding studies were performed in 10 mM HEPES, 300 mM NaCl, 3 mM EDTA, and 0.05% v/v Surfactant Tween-20, pH 7.4 (HBS-ET) running buffer at 25° C. The Biacore CM4 sensor chip surface was first derivatized by amine coupling with the goat anti-human Fcγ specific polyclonal antibody (Jackson ImmunoResearch Laboratories, Cat #BR-1008-39) to capture anti-MSR1 monoclonal antibodies. Binding studies were performed on human MSR1 extracellular domain expressed with a N-terminal nonahistidine tag (His9-hMSR1; R&D Systems, Cat #2708-MS).
The association rate (ka) and dissociation rate (kd) were determined by fitting the real-time binding sensorgrams to a 1:1 binding model with mass transport limitation using Scrubber 2.0c curve-fitting software. Binding dissociation equilibrium constant (KD) and dissociative half-life (t½) were calculated from the kinetic rates as: […]
Binding kinetics parameters for His9-hMSR1 binding to different anti-MSR1 antibody-LXR ADCs and their unconjugated parental antibodies at 25° C. are shown in Table 19. “LP1” represents a linker-payload for which the payload structure is provided in Example 11.
The binding studies were repeated with anti-MSR1 antibody H1H21234-N297Q and steroid linker payloads (LPs). “LP3” represents a linker-payload for which the structure is provided in Example 23, and “LP13” represents a linker-payload for which the structure is provided in Example 24.

[3] = molecular target: T2, MSR1-mediated Dil-AcLDL uptake in HEK293.Myc.hMSR1 cells; test: Ligand uptake assay, Dil-AcLDL; format: cell-based; conditions: 10 μg/mL Dil-AcLDL; for Dil-Acetylated LDL % Inhibition: maximum inhibition
Experimental: A bioassay was generated to assess the ability of the exemplary anti-MSR1 antibodies to regulate the uptake of certain MSR1 ligands.
Generation of MSR1-expressing cell lines for assay. […] The resulting cell line, referred to here as “HEK293.Myc.hMSR1”, was selected and maintained in DMEM containing 10% FIBS, NEAA, penicillin/streptomycin, L-glutamine, and 100 μg/mL hygromycin.
Ligand uptake assay. […] After 30 minutes, either oxidized or acetylated low-density lipoprotein (LDL) labeled with 1,1′dioctadecyl-3,3,3′,3′-tetramethylindocarbocyanine perchlorate (referred to as “Dil-OxLDL” or “Dil-AcLDL,” respectively) was added to the cells at a constant concentration of 10 μg/mL. […] Results were analyzed using nonlinear regression (4-parameter logistics) with the Prism 7 program to obtain EC50 and IC50 values. The percentage of inhibition was calculated with the Relative Fluorescent Unit (RFU) values by using the following equation: […]
In the equation, “RFUBaseline” is the fluorescence value from the cells treated with 10 μg/mL ligand without antibodies, “RFUInhibition” is the minimum fluorescence value with for a particular antibody with 10 μg/mL ligand, and “RFUBackground” is the fluorescence value from cells without any ligand or antibodies.

Molecule	B16F10.9 MFI [1]	ka [2] [M⁻¹ s⁻¹]	kd [2] [s⁻¹]	Dil-Acetylated LDL IC50 [3]	maximum inhibition of Dil-AcLDL uptake [3]	Dil-Acetylated LDL % Inhibition [3]
H1H27739P-N297Q: anti-MSR1 antibody "made with an N297Q single point mutation in human Fcγ portion" (antibody, V domains shown) VH: EVQLVESGGGLVQPGGSLRLSCTASGFTFSSYAMSWVRQAPGKGLEWVSAISGTGSSTYFTDSVKGRFAISRDNSKNTLYLQMNSLRAEDTAVYYCAKDGEWLSTVTLFDYWGQGTLVTVSS VL: EIVMTQSPATLSVSPGERATLSCRASQSVSSNLAWYQQKPGQAPRLLIYGASTRATGIPARFSGSGSGTDFTLTISSLQSEDFALYYCQQYFIWPPHPTFGPGTKVDIKR	3580	119000	0.000555	no inhibition	no inhibition	no inhibition
H1H27734P-N297Q: one of "Twelve anti-MSR1 antibodies"; "made with an N297Q single point mutation in human Fcγ portion" (antibody, V domains shown) VH: EVQLVESRGGLVQPGGSLRLSCAASGFTFSSYAMSWVRQAPGKGLEWVSAISGSGGSTFYADSVKGRFTISRDNSKNTVYLQMNSLRAEDTAVYYCAKALVLRFLEWLGDYWGQGTLVTVSS VL: DIQMTQSPSTLSASVGDRVTITCRASQSISSWLAWFQQKPGKAPKLLIYKASSLESGVPSRFSGSGSGTEFTLTISSLQPDDFATYYCQQYKSYWTFGQGTKVEIKR	4505	77200	0.000596	no inhibition	no inhibition	no inhibition
H1H21231N-N297Q: modified version of "21231N (H1H21231N-N297Q) anti-MSR1 antibodies" with "a N297Q single point mutation" (antibody, V domains shown) VH: EVQLVESGGGLVQPGGSLRLSCAASGFTFSDHYMDWVRQAPGKGLEWVGRTRNKANSHTTEYTASVTGRFTISRDDSRNSLYLQMNSLKTEDTAVYYCVRAGIIGTLFDYWGQGTLVTVSS VL: DIQMTQFPSSLSASVGDRVTITCRASQSISSFLNWFQQKPGKAPKFLIYAASSLQSGVPSRFSGSGSGTDFTLTISSLQPEDFATYYCQQSYSSPPITFGQGTRLEIKR	3374					62%
